Test results taken from publication PMC4843776 (Biochemistry, 2016).
Like-named read-outs stand apart in the source and are kept apart here. Where no end group is shown, it is not given here.

Columns and labels:
[1] = tested on: Pyk2-FAT domain; details: ref [36]; cited from earlier work
[2] = molecular target: FAT domain of human Pyk2 (residues 871-1005) (Homo sapiens, UniProt Q14289); experiment: ITC of leupaxin LD peptides and leupaxin^1-105 binding to Pyk2-FAT
[3] = molecular target: Pyk2-FAT-LD1 (Homo sapiens, UniProt Q14289); details: X-ray, 2.0 Å (4XEV); 0.5 mM protein, 2 mM leupaxin-LD4 peptide
[4] = tested on: Pyk2-FAT; experiment: NMR titration / chemical shift perturbation of 15N-labeled Pyk2-FAT; type: binding, human
[5] = molecular target: paxillin LD4 LD4 motif peptide (Homo sapiens) (UniProt P49023); details: cited from earlier work
[6] = molecular target: paxillin LD4 LD4 motif peptide (Homo sapiens) (UniProt P49023); details: cited from earlier work; remark: listed apart in the source
[7] = molecular target: Paxillin LD4 peptide LD4 (Homo sapiens) (UniProt P49023); details: cited from earlier work
Sequence of Paxillin LD4 peptide LD4 (Homo sapiens) (P49023 263-282): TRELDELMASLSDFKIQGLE

[8] = molecular target: Paxillin LD4 peptide LD4 (Homo sapiens) (UniProt P49023); details: cited from earlier work; remark: listed apart in the source
[9] = molecular target: T1, FAT domain of human Pyk2 (residues 871-1005) (human, UniProt Q14289 871-1005); experiment: ITC
[10] = molecular target: T1, FAT domain of human Pyk2 (residues …); experiment: ITC; remark: listed apart in the source
[11] = molecular target: T1, FAT domain of human Pyk2 (residues …); experiment: SEC-MALS
[12] = ITC, 20 mM MES, pH 6.2, 15°C, two-site sequential model, first site, duplicate
[13] = ITC, 20 mM MES, pH 6.2, 15°C, two-site sequential model, second site, duplicate

Molecule: KTSAAAQLDELMAHLTEMQ [leupaxin-LD4]
- Binding behaviour with Pyk2-FAT (in words) [1]: compete equally for H2/H3
- Stoichiometry of binding (peptide to Pyk2-FAT) ([2]; ITC, 20 mM MES, pH 6.2, 15°C): 2 to 1 stoichiometry
- ΔG, first site [2, 12]: -7.6 ± 0.3 kcal/mol
- ΔH, first site [2, 12]: -3.0 ± 0.2 kcal/mol
- −T.ΔS, first site [2, 12]: -4.6 ± 0.6 kcal/mol
- ΔG, second site [2, 13]: -6.0 ± 0.1 kcal/mol
- ΔH, second site [2, 13]: 0.5 ± 0.3 kcal/mol
- −T.ΔS, second site [2, 13]: -6.5 ± 0.4 kcal/mol
- Higher affinity at the preferred Pyk2-FAT binding site ([2]; ratio of the two site KDs (LD1 prefers H1/H4, LD4 prefers H2/H3)): ~19 fold
- Binding site in crystal structure with Pyk2-FAT-LD1 [3]: binds at the H2/H3 site
- CSP differences between leupaxin-LD1 and leupaxin-LD4 ([4]; 4 equivalents peptide, 15N-labeled Pyk2-FAT, 20 mM MES, pH 6.2, 305K): residues Arg 918 and Ala 951 from H2/H3 show a high magnitude of CSP
- NMR site preference on Pyk2-FAT ([4]; NMR titrations, LD1 for H1/H4, LD4 for H2/H3, respectively): strong preference for H1/H4 and H2/H3 sites of Pyk2-FAT, respectively

Molecule: Pyk2 FAT (871-1005), H1/H4 site (from UniProt Q14289)
- Kd [5]: 46.3 µM

Molecule: Pyk2 FAT (871-1005), H2/H3 site (from UniProt Q14289)
- Kd [6]: 8 µM

Molecule: Pyk2 FAT H1/H4 site (from UniProt Q14289)
- Kd [7]: 46.3 µM

Molecule: Pyk2 FAT H2/H3 site (from UniProt Q14289)
- Kd [8]: 8 µM

B1: leupaxin^1-105 (human leupaxin; residues 1-105) (domain or fragment, UniProt O60711 1-105, looked up)
chain: MEELDALLEELERSTLQDSDEYSNPAPLPLDQHSRKETNLDETSEILSIQDNTSPLPAQLVYTTNIQELNVYSEAQEPKESPPPSKTSAAAQLDELMAHLTEMQA
- Kd [9]: 600 ± 200 nM
- dH [9]: -2.5 ± 0.5 kcal/mol
- stoichiometry N [9]: 1

Molecule: KTSAAAQLDELMAHLTEMQ (peptide, UniProt O60711 86-104, looked up) [leupaxin-LD4 peptide (human leupaxin; residues 86-104)]
- KD first site [10]: 2.2 ± 1 µM
- KD second site [10]: 33 ± 7.2 µM
- dH first site [10]: -3 ± 0.2 kcal/mol
- dH second site [10]: 0.5 ± 0.3 kcal/mol

B2: leupaxin^1-151 (human leupaxin; residues 1-151) (domain or fragment, UniProt O60711 1-151, looked up)
chain: MEELDALLEELERSTLQDSDEYSNPAPLPLDQHSRKETNLDETSEILSIQDNTSPLPAQLVYTTNIQELNVYSEAQEPKESPPPSKTSAAAQLDELMAHLTEMQAKVAVRADAGKKHLPDKQDHKASLDSMLGGLEQELQDLGIATVPKGH
- stoichiometry N [11]: 1

Molecule: MEELDALLEELERSTLQDSD (peptide, UniProt O60711 1-20, looked up) [leupaxin-LD1 peptide (human leupaxin; residues 1-20)]
- dH first site [10]: -2 ± 0.2 kcal/mol
- dH second site [10]: 1.6 ± 0.3 kcal/mol
